The target of experiment [1] is HLA-B*4101 (human) (UniProt P01889). As to the kind of experiment: Luminex beads; MAb 1/800; PBS only.
The target of experiment [2] is HLA-Cw*1802 (human) (UniProt P10321). As to the kind of experiment: Luminex beads; MAb 1/800; PBS only.
In experiment [3] the target is HLA-B*1511 (human) (UniProt P01889). As to the kind of experiment: Luminex beads; MAb 1/800; PBS only.
For experiment [4], the target named is HLA-B*8201 (human) (UniProt P01889). The experiment can be described thus: Luminex beads; MAb 1/800; PBS only.
Experiment [5] concerns the target HLA-B*1513 (human). As to the kind of experiment: Luminex beads; MAb 1/800; PBS only.
The target of experiment [6] is HLA-B*4403 (human). The experiment can be described thus: Luminex beads; MAb 1/800; PBS only.
The target of experiment [7] is HLA-B*5201 (human). As to the kind of experiment: Luminex beads; MAb 1/800; PBS only.
Experiment [8] deals with HLA-B*3701 (human). The experiment can be described thus: Luminex beads; MAb 1/800; PBS only.
For experiment [9], the target named is HLA-Cw*0303 (human). The experiment can be described thus: Luminex beads; MAb 1/800; PBS only.
The target of experiment [10] is HLA-B*5101 (human). The experiment can be described thus: Luminex beads; MAb 1/800; PBS only.
Experiment [11] concerns the target HLA-Cw*1701 (human). As to the kind of experiment: Luminex beads; MAb 1/800; PBS only.
For experiment [12], the target named is HLA-Cw*0304 (human). As to the kind of experiment: Luminex beads; MAb 1/800; PBS only.
The target in experiment [13] is HLA-Cw*1601 (human) (UniProt P10321). The experiment can be described thus: Luminex beads; MAb 1/800; PBS only.
Experiment [14] deals with HLA-Cw*0602 (human) (UniProt P10321). The experiment can be described thus: Luminex beads; MAb 1/800; PBS only.
For experiment [15], the target named is HLA-B*5801 (human). As to the kind of experiment: Luminex beads; MAb 1/800; PBS only.
Experiment [16] has as its target HLA-Cw*0702 (human) (UniProt P10321). The experiment can be described thus: Luminex beads; MAb 1/100; PBS only.
The target in experiment [17] is HLA-Cw*0202 (human). The experiment can be described thus: Luminex beads; MAb 1/100; PBS only.
The target of experiment [18] is HLA-Cw*1402 (human) (UniProt P10321). The experiment can be described thus: Luminex beads; MAb 1/100; PBS only.
In experiment [19] the target is HLA-B*1511 (human) (UniProt P01889). The experiment can be described thus: Luminex beads; MAb 1/100; PBS only.
Experiment [20] has as its target HLA-Cw*0501 (human). The experiment can be described thus: Luminex beads; MAb 1/100; PBS only.
Experiment [21] deals with HLA-B*4006 (human) (UniProt P01889). As to the kind of experiment: Luminex beads; MAb 1/100; PBS only.
In experiment [22] the target is HLA-B*4403 (human). As to the kind of experiment: Luminex beads; MAb 1/100; PBS only.
Experiment [23] deals with HLA-Cw*0303 (human). As to the kind of experiment: Luminex beads; MAb 1/100; PBS only.
Experiment [24] addresses HLA-B*5101 (human). The experiment can be described thus: Luminex beads; MAb 1/100; PBS only.
Experiment [25] deals with HLA-Cw*1701 (human). The experiment can be described thus: Luminex beads; MAb 1/100; PBS only.
For experiment [26], the target named is HLA-B*1401 (human) (UniProt P01889). As to the kind of experiment: Luminex beads; MAb 1/100; PBS only.
For experiment [27], the target named is HLA-B*1801 (human). The experiment can be described thus: Luminex beads; MAb 1/100; PBS only.
In experiment [28] the target is HLA-Cw*0602 (human) (UniProt P10321). The experiment can be described thus: Luminex beads; MAb 1/100; PBS only.
In experiment [29] the target is HLA-Cw*0801 (human) (UniProt P10321). The experiment can be described thus: Luminex beads; MAb 1/100; PBS only.
Experiment [30] addresses HLA-B*4701 (human). As to the kind of experiment: Luminex beads; MAb 1/100; PBS only.
For experiment [31], the target named is HLA-B*4501 (human). As to the kind of experiment: Luminex beads; MAb 1/100; PBS only.
Experiment [32] has as its target HLA-B*5801 (human). The experiment can be described thus: Luminex beads; MAb 1/100; PBS only.
Experiment [33] concerns the target HLA-A*2501 (A25) (human). As to the kind of experiment: Luminex single-antigen beads; MEM-E/02 1/600; serum Mi59 1/100.
Experiment [34] concerns the target HLA-Cw*0401 (Cw4) (human). The experiment is described as above.
The target of experiment [35] is HLA-Cw*1802 (Cw18) (human) (UniProt P10321). The experiment is described as above.
Experiment [36] deals with HLA-B*0801 (B8) (human) (UniProt P01889). The experiment is described as above.
The target in experiment [37] is HLA-Cw*1701 (Cw17) (human). The experiment is described as above.
Experiment [38] addresses HLA-B*4501 (B45) (human). The description is as above.
Experiment [39] has as its target HLA-B*1511 (B75) (human) (UniProt P01889). The description is as above.
The target in experiment [40] is HLA-B*4801 (B48) (human) (UniProt P01889). The experiment is described as above.
In experiment [41] the target is HLA-B*1513 (B77) (human). Described as above.
Experiment [42] has as its target HLA-A*2601 (A26) (human). The experiment is described as above.
For experiment [43], the target named is HLA-B*5001 (B50) (human). The description is as above.
Experiment [44] addresses HLA-B*3901 (B39) (human) (UniProt P01889). The description is as above.
Experiment [45] concerns the target HLA-B*3801 (B38) (human). As to the kind of experiment: Luminex single-antigen beads; MEM-E/02 1/600; serum Mi92 1/100.

The values below come from patent US20120171195A1.

Turning to “murine monoclonal antibody (MAb) MEM-E/02”, the MFI in experiment [1] amounted to 960 MFI; in [2], 4090 MFI; in experiment [3] it was 796 MFI; in experiment [4] it was 614 MFI; in experiment [5], 760 MFI; in experiment [6] it was 983 MFI. The MFI was determined as 786 MFI in experiment [7]; 993 MFI in experiment [8]; 805 MFI in experiment [9]; 515 MFI in experiment [10]; 847 MFI in experiment [11]; 783 MFI in experiment [12]. Also, the MFI in [13] was 752 MFI; in [14], 839 MFI; in experiment [15], 835 MFI; in experiment [16], 3080 MFI; in experiment [17] it was 3880 MFI; in experiment [18], 3470 MFI. Further, the MFI in experiment [19] amounted to 3430 MFI; in [20], 7180 MFI; in [21], 8590 MFI; in [22], 3680 MFI; in experiment [23] it was 3200 MFI; in experiment [24] it was 2210 MFI. Moreover, the MFI is 3360 MFI in [25]; 7340 MFI in experiment [26]; 3540 MFI in [27]; 4040 MFI in experiment [28]; 5890 MFI in [29]; 3650 MFI in experiment [30]. The MFI in experiment [31] turned out to be 4770 MFI; in [32], 3990 MFI.

With murine monoclonal antibody MAb MEM-E/02, the MFI in experiment [33] is less than 500 MFI; in [34], 4590 MFI; in experiment [35], 1080 MFI; in experiment [36], less than 500 MFI; in [37], less than 500 MFI; in [38], less than 500 MFI. In addition, the MFI in experiment [39], in experiment [40], in experiment [41], in experiment [42], in experiment [43] and in [44] was less than 500 MFI in each case. In addition, the MFI in [45] is less than 500 MFI.
